Measured values reported in article PMC6073210, “Adducin‐1 is essential for spindle pole integrity through its interaction with TPX2” (EMBO Reports, 2018).

B1: FLAG-ADD1 WT (adducin-1), transiently expressed in HEK293 cells [not stated] / GST-TPX2 aa 120–370 fusion protein [human] (parent)
chain 1: MNGDSRAAVVTSPPPTTAPHKERYFDRVDENNPEYLRERNMAPDLRQDFNMMEQKKRVSMILQSPAFCEELESMIQEQFKKGKNPTGLLALQQIADFMTTNVPNVYPAAPQGGMAALNMSLGMVTPVNDLRGSDSIAYDKGEKLLRCKLAAFYRLADLFGWSQLIYNHITTRVNSEQEHFLIVPFGLLYSEVTASSLVKINLQGDIVDRGSTNLGVNQAGFTLHSAIYAARPDVKCVVHIHTPAGAAVSAMKCGLLPISPEALSLGEVAYHDYHGILVDEEEKVLIQKNLGPKSKVLILRNHGLVSVGESVEEAFYYIHNLVVACEIQVRTLASAGGPDNLVLLNPEKYKAKSRSPGSPVGEGTGSPPKWQIGEQEFEALMRMLDNLGYRTGYPYRYPALREKSKKYSDVEVPASVTGYSFASDGDSGTCSPLRHSFQKQQREKTRWLNSGRGDEASEEGQNGSSPKSKTKWTKEDGHRTSTSAVPNLFVPLNTNPKEVQEMRNKIREQNLQDIKTAGPQSQVLCGVVMDRSLVQGELVTASKAIIEKEYQPHVIVSTTGPNPFTTLTDRELEEYRREVERKQKGSEENLDEAREQKEKSPPDQPAVPHPPPSTPIKLEEDLVPEPTTGDDSDAATFKPTLPDLSPDEPSEALGFPMLEKEEEAHRPPSPTEAPTEASPEPAPDPAPVAEEAAPSAVEEGAAADPGSDGSPGKSPSKKKKKFRTPSFLKKSKKKSDS
chain 2: RSLRLSAQKDLEQKEKHHVKMKAKRCATPVIIDEILPSKKMKVSNNKKKPEEEGSAHQDTAEKNASSPEKAKGRHTVPCMPPAKQKFLKSTEEQELEKSMKMQQEVVEMRKKNEEFKKLALAGIGQPVKKSVSQVTKSVDFHFRTDERIKQHPKNQEEYKEVNFTSELRKHPSSPARVTKGCTIVKPFNLSQGKKRTFDETVSTYVPLAQQVEDFHKRTPNRYHLRSKKDDINLLPSKSSVTKICRDPQTP

Variants of: B1
Assay: GST pull-down (immunoblot quantification)
Settings: with GST-TPX2 aa 120–370 fusion protein [human]; lysates from HEK293 cells; five independent experiments; means ± s.d.; parent: 100; read off a plot

percent of parent [%]	Variant
40	chain 1 S726A
